Test results reported in article PMC8599861, “Structures of prokaryotic ubiquitin-like protein Pup in complex with depupylase Dop reveal the mechanism of catalytic phosphate formation” (Nature Communications, 2021).

Target: Prokaryotic ubiquitin-like protein Pup from Corynebacterium glutamicum with C-terminal glutamate (Corynebacterium glutamicum) (UniProt Q8NQE0)
Test: ITC; 25 °C, MicroCal iTC200; 150 µM CgluDop or 200 µM CgluDopGS injected into 15 or 20 µM CgluPupE in the cell; 50 mM Tris-HCl pH 8.0, 300 mM NaCl, 20 mM MgCl2; 1:1 binding model

Chain of Prokaryotic ubiquitin-like protein Pup from Corynebacterium glutamicum with C-terminal glutamate (Corynebacterium glutamicum) (Q8NQE0 whole entry): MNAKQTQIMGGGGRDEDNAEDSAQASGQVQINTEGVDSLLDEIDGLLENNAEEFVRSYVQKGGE

A fold tighter affinity than the wild type enzyme of 2.5 fold was found for “CgluDopGS, Dop-loop variant of Dop from Corynebacterium glutamicum (Dop-loop H43-I77 replaced with (GS)4) (enzyme)” in this work.
